The values that follow come from patent publication US7083511.

Several values for one entry are separate records, joined by “and”; a condition that tells them apart may be missing. Equal values may be shown once. A value given as a limit tells only on which side of the number the result lay.

One data set concerns T1, RPRTSSK.
T1 sequence: RPRTSSK

A further data set deals with T2, RPKTSSF.
T2 sequence: RPKTSSF

A further data set relates to T3, PRTSSF.
T3 sequence: PRTSSF

The next data set concerns T4, RPRTSTF.
T4 sequence: RPRTSTF

A further data set deals with T5, KPRTSSF.
T5 sequence: KPRTSSF

For a further data set, the system named is T6, RPRAATF.
T6 sequence: RPRAATF

The next data set concerns T7, RPRTSSA.
T7 sequence: RPRTSSA

A further data set deals with T8, RPRTSAF.
T8 sequence: RPRTSAF

A further data set deals with T9, RPRTSS.
T9 sequence: RPRTSS

Another data set relates to T10, RPRTSSF.
T10 sequence: RPRTSSF

The next data set has as its system T11, RPRTSSV.
T11 sequence: RPRTSSV

Another data set has as its system T12, RPRTSSL.
T12 sequence: RPRTSSL

Another data set deals with T13, Crosstide (GRPRTSSFAEG).
T13 sequence: GRPRTSSFAEG

For the next data set, the system named is T14, RPRTSSE.
T14 sequence: RPRTSSE

Turning to GST-ΔN-SGK3[S419D], the kinase activity toward peptide (30 µM), relative to peptide 1 (Crosstide) was 200% in the data set with RPRTSSK; 48% with RPKTSSF; less than 1% in the data set on PRTSSF; 156% in the data set on RPRTSTF; less than 1% in the data set with KPRTSSF; 56% in the data set with RPRAATF. Moreover, the kinase activity toward peptide (30 µM), relative to peptide 1 (Crosstide) in the data set on RPRTSSA was 123%; in the data set on RPRTSAF, less than 1%; in the data set with RPRTSS, 18%; in the data set with RPRTSSF, 137%; in the data set with RPRTSSV, 139%; with RPRTSSL, 113%. Further, the kinase activity toward peptide (30 µM), relative to peptide 1 (Crosstide) with Crosstide (GRPRTSSFAEG) worked out at 100%; in the data set with RPRTSSE, 67%.

Take GST-PKBα: the kinase activity toward peptide (30 µM), relative to peptide 1 (Crosstide) is 48% in the data set on RPRTSSK; 26% in the data set on RPKTSSF; less than 1% with PRTSSF; 208% in the data set on RPRTSTF; 6% in the data set with KPRTSSF; 55% with RPRAATF. Also, the kinase activity toward peptide (30 µM), relative to peptide 1 (Crosstide) in the data set with RPRTSSA is 26%; in the data set with RPRTSAF, less than 1%; in the data set with RPRTSS, less than 1%; in the data set with RPRTSSF, 160%; in the data set with RPRTSSV, 67%; with RPRTSSL it was 69%. Besides, the “kinase activity toward peptide (30 µM), relative to peptide 1 (Crosstide)” value with Crosstide (GRPRTSSFAEG) is 100%; in the data set on RPRTSSE, 21%.

Turning to GST-SGK2α[S356D], the kinase activity toward peptide (30 µM), relative to peptide 1 (Crosstide) is 128% in the data set on RPRTSSK; 8% in the data set with RPKTSSF; less than 1% with PRTSSF; 192% in the data set on RPRTSTF; less than 1% in the data set on KPRTSSF; 61% in the data set with RPRAATF. In addition, the kinase activity toward peptide (30 µM), relative to peptide 1 (Crosstide) was 82% with RPRTSSA; less than 1% with RPRTSAF; 8% in the data set on RPRTSS; 182% in the data set with RPRTSSF; 124% with RPRTSSV; 185% in the data set on RPRTSSL. Also, the kinase activity toward peptide (30 µM), relative to peptide 1 (Crosstide) was determined as 100% in the data set with Crosstide (GRPRTSSFAEG) and 34% in the data set on RPRTSSE.

For the substance GST-ΔN-SGK(61-431)[S422D], the kinase activity toward peptide (30 µM), relative to peptide 1 (Crosstide) with PRTSSF was less than 1%; in the data set with KPRTSSF, 2% and < 1%; in the data set with RPRTSAF, less than 1%; in the data set with RPRTSS, 5.1% and 10%; in the data set on RPRTSSF it was 154% and 135%; in the data set on Crosstide (GRPRTSSFAEG), 100%.
